From paper PMC3538150 (Cell reports, 2012) come the findings set out here.

Where no end group is shown, it is not given here.

The target of test [1] is T1, DNA ligase IV DNA binding domain (LigIV-DBD; residues 1-240), wild type (human, UniProt P49917 1-240).
T1 sequence (looked up): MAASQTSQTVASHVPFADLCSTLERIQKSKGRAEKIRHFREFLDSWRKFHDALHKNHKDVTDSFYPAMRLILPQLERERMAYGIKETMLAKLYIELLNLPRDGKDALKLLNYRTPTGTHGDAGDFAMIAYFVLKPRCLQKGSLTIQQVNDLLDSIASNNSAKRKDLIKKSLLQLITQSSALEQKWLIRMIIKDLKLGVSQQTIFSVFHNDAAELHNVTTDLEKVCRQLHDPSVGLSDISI
Kind of test: fluorescence polarisation. (In general: In fluorescence polarisation assays a small probe gives low polarisation when free and higher when bound to something large.)

In test [2] the target is T1, DNA ligase IV DNA binding domain …. Kind of test: ITC.
The target in the next test is T2, LigIV-DBD V14A (human, UniProt P49917 1-240, V14A).
T2 sequence (looked up): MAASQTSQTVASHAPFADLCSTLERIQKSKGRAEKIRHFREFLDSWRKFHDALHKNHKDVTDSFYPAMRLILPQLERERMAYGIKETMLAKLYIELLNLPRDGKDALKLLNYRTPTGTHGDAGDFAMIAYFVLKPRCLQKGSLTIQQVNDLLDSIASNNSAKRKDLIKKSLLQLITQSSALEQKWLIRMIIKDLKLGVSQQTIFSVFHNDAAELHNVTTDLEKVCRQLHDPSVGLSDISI
Kind of test: ITC.

The target in the next test is T3, LigIV-DBD D18H (human, UniProt P49917 1-240, D18H).
T3 sequence (looked up): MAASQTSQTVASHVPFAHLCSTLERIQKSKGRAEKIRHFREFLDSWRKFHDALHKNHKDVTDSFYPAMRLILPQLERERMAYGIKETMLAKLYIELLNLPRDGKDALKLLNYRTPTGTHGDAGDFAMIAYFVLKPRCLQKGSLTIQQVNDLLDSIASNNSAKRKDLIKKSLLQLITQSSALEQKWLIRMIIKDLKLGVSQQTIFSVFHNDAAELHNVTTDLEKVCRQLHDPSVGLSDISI
Kind of test: ITC. For orientation: In ITC the heat of successive injections is recorded.

B1: 6-FAM (6-carboxyfluorescein) labeled cArt-Pep (peptide)
peptide: DVPQWEVFFKR
modifications: also: 6-FAM label, position not given here
B1: the binding result in test [1] is “binds”.

B2: cArt-Pep, peptide derived from the Artemis C-terminal region (485-DVPQWEVFFKR-495) (peptide)
peptide: DVPQWEVFFKR
As for B2, the Kd (commonly a measure of binding affinity in units of concentration) was determined as 4.8 µM in test [2], 13.6 µM with LigIV-DBD V14A and 9.1 µM with LigIV-DBD D18H. For the same molecule, the stoichiometry N (commonly a count of units in the complex or per binding partner) in test [2] worked out at 1 ± 0.1.
